Test results taken from patent US20160185865A1.

Target: human CC chemokine receptor 4 (CCR4) (human) (UniProt P51679)
Assay: binding curve of FIG. 20B; cells not given

human CC chemokine receptor 4 (CCR4) (human), sequence (P51679 whole entry): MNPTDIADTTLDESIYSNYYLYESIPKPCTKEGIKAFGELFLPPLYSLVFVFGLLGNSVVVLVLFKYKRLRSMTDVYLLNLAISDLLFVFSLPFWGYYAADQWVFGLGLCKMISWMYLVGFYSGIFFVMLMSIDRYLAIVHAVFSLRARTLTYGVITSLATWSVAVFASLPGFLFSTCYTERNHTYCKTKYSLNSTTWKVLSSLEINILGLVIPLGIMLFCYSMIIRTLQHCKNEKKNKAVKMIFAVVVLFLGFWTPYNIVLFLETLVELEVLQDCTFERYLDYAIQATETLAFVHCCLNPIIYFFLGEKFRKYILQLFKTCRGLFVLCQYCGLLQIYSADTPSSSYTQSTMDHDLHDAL

- EC50: 5.07 nM
B1: KM2760 (anti-CCR4 chimeric antibody) (antibody, from another filing, V domains shown)
VH: EVQLVESGGDLMKPGGSLKISCAASGFIFSNYGMSWVRQTPDMRLEWVATISSASTYSYYPDSVKGRFTISRDNAENSLYLQMNSLRSEDTGIYYCGRHSDGNFAFGYWGRGTLVTVSA
VL: DVLMTQTPLSLPVSLGDQASISCRSSRNIVHINGDTYLEWYLQRPGQSPKLLIYKVSNRFSGVPDRFSGSGSGTDFTLKISRVEAEDLGVYYCFQGSLLPWTFGGGTRLEIRR
